Results reported in the Immune Epitope Database (IEDB).
pIC50, pKd: −log10 of the molar value.

Legend:
HLA-A*02:01 [1] = experiment: IEDB peptide-MHC binding, purified MHC/competitive/fluorescence; ≥ and ≤ were set here for values at or beyond the usual limits of such assays
HLA-B*08:01 = experiment: as above
HLA-B*15:01 [2] = experiment: as above
HLA-A*11:01 = experiment: as above
HLA-A*03:01 [3] = experiment: as above
HLA-A*01:01 [4] = experiment: as above
HLA-A*24:02 = experiment: as above
HLA-B*51:01 [5] = experiment: IEDB peptide-MHC binding, purified MHC/direct/fluorescence; filed as Kd, often an IC50 or EC50 that approximates it; ≥ and ≤ were set here for values at or beyond the usual limits of such assays
HLA-A*23:01 = experiment: as above; conditions: source organism: Zaire ebolavirus
HLA-A*01:01 [6] = experiment: as above; conditions: source organism: Zaire ebolavirus
HLA-A*24:03 = experiment: as above; conditions: source organism: Zaire ebolavirus
HLA-A*02:11 = experiment: as above; conditions: source organism: Zaire ebolavirus
HLA-A*02:03 = experiment: as above; conditions: source organism: Zaire ebolavirus
HLA-A*02:19 = experiment: as above; conditions: source organism: Zaire ebolavirus
HLA-A*03:01 [7] = experiment: as above; conditions: source organism: Zaire ebolavirus
HLA-A*02:16 = experiment: as above; conditions: source organism: Zaire ebolavirus
HLA-A*68:02 = experiment: as above; conditions: source organism: Zaire ebolavirus
HLA-A*02:12 = experiment: as above; conditions: source organism: Zaire ebolavirus
HLA-B*51:01 [8] = experiment: IEDB peptide-MHC binding, purified MHC/competitive/fluorescence; filed as Kd, often an IC50 or EC50 that approximates it; ≥ and ≤ were set here for values at or beyond the usual limits of such assays; conditions: source organism: Zaire ebolavirus
HLA-A*02:01 [9] = experiment: as above; conditions: source organism: Zaire ebolavirus
HLA-B*46:01 = experiment: as above; conditions: source organism: Zaire ebolavirus
HLA-A*26:01 = experiment: as above; conditions: source organism: Zaire ebolavirus
HLA-B*39:01 = experiment: as above; conditions: source organism: Zaire ebolavirus
HLA-B*57:01 = experiment: as above; conditions: source organism: Zaire ebolavirus
HLA-A*69:01 = experiment: as above; conditions: source organism: Zaire ebolavirus
HLA-B*27:03 = experiment: as above; conditions: source organism: Zaire ebolavirus
HLA-B*35:01 = experiment: IEDB peptide-MHC binding, purified MHC/competitive/radioactivity; filed as Kd, often an IC50 or EC50 that approximates it; ≥ and ≤ were set here for values at or beyond the usual limits of such assays; conditions: source organism: Dengue virus 4 Philippines/H241/1956
HLA-B*53:01 = experiment: as above; conditions: source organism: Dengue virus 4 Philippines/H241/1956
HLA-B*27:05 = experiment: IEDB peptide-MHC binding, purified MHC/direct/fluorescence; filed as Kd, often an IC50 or EC50 that approximates it; ≥ and ≤ were set here for values at or beyond the usual limits of such assays; conditions: source organism: Zaire ebolavirus
HLA-B*58:01 = experiment: as above; conditions: source organism: Zaire ebolavirus
HLA-A*29:02 = experiment: as above; conditions: source organism: Zaire ebolavirus
HLA-B*15:01 [10] = experiment: as above; conditions: source organism: Zaire ebolavirus
HLA-B*07:02 = experiment: IEDB peptide-MHC binding, purified MHC/competitive/fluorescence; ≥ and ≤ were set here for values at or beyond the usual limits of such assays; conditions: source organism: Zaire ebolavirus
[11] = source organism: Vaccinia virus
[12] = source organism: Sudan ebolavirus
[13] = source organism: Zaire ebolavirus
[14] = source organism: Vaccinia virus Copenhagen

GCLRIQSLM
pIC50 (HLA-A*02:01 [1]; [11]): 5.02
pIC50 (HLA-B*08:01; [11]): ≤ 3.16
pIC50 (HLA-B*15:01 [2]; [11]): ≤ 3.23

KLLLWFNYL
pIC50 (HLA-A*11:01; source organism: Variola virus): ≤ 3.85
pIC50 (HLA-A*03:01 [3]; source organism: Variola virus): ≤ 3.16

TENTSSYYA
pIC50 (HLA-A*01:01 [4]; [12]): ≤ 3.85

ESDMDYHKI
pIC50 (HLA-A*24:02; [13]): ≤ 3.96
pIC50 (HLA-A*01:01 [4]; [13]): ≤ 3.93

QVEQHHRRT
pIC50 (HLA-A*02:01 [1]; [13]): ≤ 3.60
pIC50 (HLA-A*11:01; [13]): 6.26
pIC50 (HLA-A*03:01 [3]; [13]): 5.51

STHNTPVYK
pIC50 (HLA-A*02:01 [1]; [13]): ≤ 3.49
pIC50 (HLA-A*24:02; [13]): ≤ 3.87
pIC50 (HLA-A*11:01; [13]): 6.36
pIC50 (HLA-A*03:01 [3]; [13]): 5.30

YYATSYLEY
pIC50 (HLA-A*24:02; [12]): 6.17
pIC50 (HLA-A*01:01 [4]; [12]): ≤ 3.96
pIC50 (HLA-B*15:01 [2]; [12]): ≤ 3.61

HKNKFMAIL
pIC50 (HLA-A*02:01 [1]; [13]): ≤ 3.11
pIC50 (HLA-A*24:02; [13]): 4.29
pIC50 (HLA-B*08:01; [13]): 4.37
pIC50 (HLA-B*15:01 [2]; [13]): ≤ 3.35

RSDGYFLKI
pIC50 (HLA-A*02:01 [1]; [14]): 5.31
pIC50 (HLA-A*24:02; [14]): 4.79
pIC50 (HLA-A*01:01 [4]; [14]): 5.47

SPSKLASAI
pKd (HLA-B*51:01 [5]; source organism: Dengue virus): ≤ 4.70

YQVNNLEEI
pIC50 (HLA-A*02:01 [1]; [13]): 4.59
pIC50 (HLA-A*24:02; [13]): 5.78
pIC50 (HLA-B*15:01 [2]; [13]): 4.26

THKLSLTKL
pIC50 (HLA-A*11:01; source organism: Variola virus): 4.34
pIC50 (HLA-A*03:01 [3]; source organism: Variola virus): ≤ 3.83

LIIDEVHEH
pIC50 (HLA-A*02:01 [1]; source organism: Variola virus): ≤ 4.00
pIC50 (HLA-A*11:01; source organism: Variola virus): 4.16
pIC50 (HLA-B*15:01 [2]; source organism: Variola virus): ≤ 3.89

TTEANAGQF
pKd (HLA-A*23:01): ≤ 4.70
pKd (HLA-A*01:01 [6]): ≤ 4.70
pKd (HLA-A*24:03): ≤ 4.70
pKd (HLA-A*02:11): ≤ 4.70
pKd (HLA-A*02:03): ≤ 4.70
pKd (HLA-A*02:19): ≤ 4.70
pKd (HLA-A*03:01 [7]): ≤ 4.70
pKd (HLA-A*02:16): ≤ 4.70
pKd (HLA-A*68:02): ≤ 4.70
pKd (HLA-A*02:12): ≤ 4.70
pKd (HLA-B*51:01 [8]): ≤ 4.70
pKd (HLA-A*02:01 [9]): ≤ 4.70
pKd (HLA-B*46:01): ≤ 4.70
pKd (HLA-A*26:01): ≤ 4.70
pKd (HLA-B*39:01): ≤ 4.70
pKd (HLA-B*57:01): ≤ 4.70
pKd (HLA-A*69:01): ≤ 4.70
pKd (HLA-B*27:03): ≤ 4.70
pIC50 (HLA-A*24:02; [13]): 4.66
pIC50 (HLA-A*01:01 [4]; [13]): ≤ 3.96

LFLESGAVK
pIC50 (HLA-A*24:02; [13]): 4.82
pIC50 (HLA-A*11:01; [13]): 4.16
pIC50 (HLA-A*03:01 [3]; [13]): ≤ 3.72

TPFGQQRVF
pKd (HLA-B*35:01): 7.32
pKd (HLA-B*53:01): 6.58
pKd (HLA-B*51:01 [5]; source organism: Dengue virus 1 Singapore/S275/1990): ≤ 4.70

GQFLSFASL
pKd (HLA-B*27:05): 6.82
pKd (HLA-B*58:01): ≤ 4.70
pKd (HLA-A*02:19): ≤ 4.70
pKd (HLA-A*03:01 [7]): ≤ 4.70
pKd (HLA-A*68:02): ≤ 4.70
pKd (HLA-A*29:02): ≤ 4.70
pKd (HLA-B*15:01 [10]): 7.49
pKd (HLA-B*51:01 [8]): ≤ 4.70
pKd (HLA-A*26:01): ≤ 4.70
pKd (HLA-B*57:01): ≤ 4.70
pKd (HLA-A*69:01): ≤ 4.70
pKd (HLA-B*27:03): ≤ 4.70
pIC50 (HLA-A*02:01 [1]; [13]): 5.47
pIC50 (HLA-A*24:02; [13]): 4.71
pIC50 (HLA-B*15:01 [2]; [13]): 5.90

FQRTFSIPL
pIC50 (HLA-A*02:01 [1]; [13]): 5.45
pIC50 (HLA-A*24:02; [13]): 4.33
pIC50 (HLA-B*07:02): 5.41
pIC50 (HLA-B*08:01; [13]): 5.26
pIC50 (HLA-B*15:01 [2]; [13]): 5.66

GTGPCPGDY
pIC50 (HLA-A*01:01 [4]; [12]): 4.97
pIC50 (HLA-A*11:01; [12]): ≤ 3.94

KQKFPYEGG
pIC50 (HLA-B*15:01 [2]; [11]): ≤ 3.63

SMRDQRKGR
pIC50 (HLA-A*03:01 [3]; source organism: Variola virus): 5.20

KPVPNRSTK
pIC50 (HLA-A*11:01; [13]): ≤ 3.94
pIC50 (HLA-A*03:01 [3]; [13]): ≤ 3.78
pIC50 (HLA-B*07:02): 4.51

YTEGLMHNQ
pIC50 (HLA-A*01:01 [4]; [12]): ≤ 3.87

QQYAESREL
pIC50 (HLA-A*02:01 [1]; [13]): 4.23
pIC50 (HLA-A*24:02; [13]): ≤ 4.14
pIC50 (HLA-B*07:02): ≤ 3.87
pIC50 (HLA-B*15:01 [2]; [13]): 4.80
